Reference: patent publication US20240141027A1 (BIOARCTIC, published 2024)

How the values were obtained:
[1] = biological target: T1, recombinant Aβ1-42; assay: indirect ELISA, plates coated with recombinant Aβ1-42
T1 construct: Coated at 0.5 µg/ml on ELISA plates; also called Amyloid Beta (Aβ1-42)

[2] = biological target: T2, recombinant murine transferrin receptor 1 (mTfR1), extracellular domain fused to a His-tag (murine, UniProt Q62351 89-763); assay: BLI (Octet), mTfR1 captured on holo-transferrin sensors, analyte 50 nM
T2 construct: Position of the His-tag (N or C) unknown; also called recombinant mTfR1; murine TfR1; not shown: His-tag
T2 sequence (Q62351 89-763): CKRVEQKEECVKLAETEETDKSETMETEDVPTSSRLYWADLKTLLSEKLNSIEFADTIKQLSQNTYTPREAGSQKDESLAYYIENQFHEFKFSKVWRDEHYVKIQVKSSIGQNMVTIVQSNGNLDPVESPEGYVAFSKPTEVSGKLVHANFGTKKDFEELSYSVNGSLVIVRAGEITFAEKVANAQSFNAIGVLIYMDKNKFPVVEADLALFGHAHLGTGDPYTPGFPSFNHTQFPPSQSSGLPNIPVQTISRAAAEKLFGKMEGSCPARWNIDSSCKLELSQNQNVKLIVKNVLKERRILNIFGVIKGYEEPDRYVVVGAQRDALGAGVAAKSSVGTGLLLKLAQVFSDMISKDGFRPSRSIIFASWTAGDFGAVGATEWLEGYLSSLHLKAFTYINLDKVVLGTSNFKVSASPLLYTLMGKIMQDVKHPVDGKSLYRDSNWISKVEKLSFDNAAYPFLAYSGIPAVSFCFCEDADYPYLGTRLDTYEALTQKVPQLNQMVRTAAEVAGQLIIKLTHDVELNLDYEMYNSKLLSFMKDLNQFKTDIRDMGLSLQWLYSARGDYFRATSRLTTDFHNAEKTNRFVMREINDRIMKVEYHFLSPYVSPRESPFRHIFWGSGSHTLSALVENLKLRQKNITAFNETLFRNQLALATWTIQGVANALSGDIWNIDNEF

T1 sequence (peptide, as listed by the source): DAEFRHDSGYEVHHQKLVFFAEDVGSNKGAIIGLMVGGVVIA

Row | binding result [1] | binding result [2] | Binder
1 | binds | binds | mAb158-scLc-8D3-Ig.10 (bispecific antibody, human IgG1, kappa, Format [LC-L1-scBM-L2-LC]) heavy: not shown DIVMTQAPLSLPVSLGDQASISCRSSQSIVHSNGNTYLEWYLQKPGQSPKLLIYKVSNRFSGVPDRFSGSGSGTDFTLKISRVEAEDLGIYYCFQGSHVPPTFGGGTKLEIKRADAAPTVSIFPPSSEQLTSGGASVVCFLNNFYPKDINVKWKIDGSERQNGVLNSWTDQDSKDSTYSMSSTLTLTKDEYERHNSYTCEATHKTSTSPIVKSFNRNECGGGGSGGGGSGGGGSGGGGSGGGGSEVQLVESGGGLVQPGNSLTLSCVASGFTFSNYGMHWIRQAPKKGLEWIAMIYYDSSKMNYADTVKGRFTISRDNSKNTLYLEMNSLRSEDTAMYYCAVPTSHYVVDVWGQGVSVTVSSGGGGSGGGGSGGGGSDIQMTQSPASLSASLEEIVTITCQASQDIGNWLAWYQQKPGKSPQLLIYGATSLADGVPSRFSGSRSGTQFSLKISRVQVEDIGIYYCLQAYNTPWTFGGGTKLELKRGGGGSGGGGSDIVMTQAPLSLPVSLGDQASISCRSSQSIVHSNGNTYLEWYLQKPGQSPKLLIYKVSNRFSGVPDRFSGSGSGTDFTLKISRVEAEDLGIYYCFQGSHVPPTFGGGTKLEIKRADAAPTVSIFPPSSEQLTSGGASVVCFLNNFYPKDINVKWKIDGSERQNGVLNSWTDQDSKDSTYSMSSTLTLTKDEYERHNSYTCEATHKTSTSPIVKSFNRNEC
2 | binds | binds | mAb158-scLc-8D3-Ig.14 (bispecific antibody, human IgG1, kappa, Format [LC-L1-scBM-L2-LC]; also called mAb158-scLc-Ig.14) heavy: not shown DIVMTQAPLSLPVSLGDQASISCRSSQSIVHSNGNTYLEWYLQKPGQSPKLLIYKVSNRFSGVPDRFSGSGSGTDFTLKISRVEAEDLGIYYCFQGSHVPPTFGGGTKLEIKRADAAPTVSIFPPSSEQLTSGGASVVCFLNNFYPKDINVKWKIDGSERQNGVLNSWTDQDSKDSTYSMSSTLTLTKDEYERHNSYTCEATHKTSTSPIVKSFNRNECGGGGSGGGGSGGGGSGGGGSGGGGSDIQMTQSPASLSASLEEIVTITCQASQDIGNWLAWYQQKPGKSPQLLIYGATSLADGVPSRFSGSRSGTQFSLKISRVQVEDIGIYYCLQAYNTPWTFGGGTKLELKRGGGGSGGGGSGGGGSEVQLVESGGGLVQPGNSLTLSCVASGFTFSNYGMHWIRQAPKKGLEWIAMIYYDSSKMNYADTVKGRFTISRDNSKNTLYLEMNSLRSEDTAMYYCAVPTSHYVVDVWGQGVSVTVSSGGGGSGGGGSGGGGSDIVMTQAPLSLPVSLGDQASISCRSSQSIVHSNGNTYLEWYLQKPGQSPKLLIYKVSNRFSGVPDRFSGSGSGTDFTLKISRVEAEDLGIYYCFQGSHVPPTFGGGTKLEIKRADAAPTVSIFPPSSEQLTSGGASVVCFLNNFYPKDINVKWKIDGSERQNGVLNSWTDQDSKDSTYSMSSTLTLTKDEYERHNSYTCEATHKTSTSPIVKSFNRNEC
3 | binds | binds | mAb158-scLc-8D3-Ig.12 (bispecific antibody, human IgG1, kappa, Format [LC-L1-scBM-L2-LC]; also called mAb158-scLc-Ig.12) heavy: not shown DIVMTQAPLSLPVSLGDQASISCRSSQSIVHSNGNTYLEWYLQKPGQSPKLLIYKVSNRFSGVPDRFSGSGSGTDFTLKISRVEAEDLGIYYCFQGSHVPPTFGGGTKLEIKRADAAPTVSIFPPSSEQLTSGGASVVCFLNNFYPKDINVKWKIDGSERQNGVLNSWTDQDSKDSTYSMSSTLTLTKDEYERHNSYTCEATHKTSTSPIVKSFNRNECGGGGSGGGGSGGGGSGGGGSGGGGSEVQLVESGGGLVQPGNSLTLSCVASGFTFSNYGMHWIRQAPKKGLEWIAMIYYDSSKMNYADTVKGRFTISRDNSKNTLYLEMNSLRSEDTAMYYCAVPTSHYVVDVWGQGVSVTVSSGGGGSGGGGSGGGGSDIQMTQSPASLSASLEEIVTITCQASQDIGNWLAWYQQKPGKSPQLLIYGATSLADGVPSRFSGSRSGTQFSLKISRVQVEDIGIYYCLQAYNTPWTFGGGTKLELKRGGGGSGGGGSGGGGSGGGGSDIVMTQAPLSLPVSLGDQASISCRSSQSIVHSNGNTYLEWYLQKPGQSPKLLIYKVSNRFSGVPDRFSGSGSGTDFTLKISRVEAEDLGIYYCFQGSHVPPTFGGGTKLEIKRADAAPTVSIFPPSSEQLTSGGASVVCFLNNFYPKDINVKWKIDGSERQNGVLNSWTDQDSKDSTYSMSSTLTLTKDEYERHNSYTCEATHKTSTSPIVKSFNRNEC
4 | binds | – | mAb158-scLc-15G11-1-Ig.1 (bispecific antibody, human IgG1, kappa, Format [LC-L1-scBM-L2-LC]) heavy: not shown DIVMTQAPLSLPVSLGDQASISCRSSQSIVHSNGNTYLEWYLQKPGQSPKLLIYKVSNRFSGVPDRFSGSGSGTDFTLKISRVEAEDLGIYYCFQGSHVPPTFGGGTKLEIKRTVAAPSVFIFPPSDEQLKSGTASVVCLLNNFYPREAKVQWKVDNALQSGNSQESVTEQDSKDSTYSLSSTLTLSKADYEKHKVYACEVTHQGLSSPVTKSFNRGECGGGGSGGGGSGGGGSEVQLVQSGAEVKKPGASVKVSCKASGYTFTSYWMHWVRQAPGQRLEWIGEINPTNGRTNYIEKFKSRATLTVDKSASTAYMELSSLRSEDTAVYYCARGTRAYHYWGQGTMVTVSSGGGGSGGGGSGGGGSDIQMTQSPSSLSASVGDRVTITCRASDNLYSNLAWYQQKPGKSPKLLVYDATNLADGVPSRFSGSGSGTDYTLTISSLQPEDFATYYCQHFWGTPLTFGQGTKVEIKGGGGSGGGGSGGGGSDIVMTQAPLSLPVSLGDQASISCRSSQSIVHSNGNTYLEWYLQKPGQSPKLLIYKVSNRFSGVPDRFSGSGSGTDFTLKISRVEAEDLGIYYCFQGSHVPPTFGGGTKLEIKRTVAAPSVFIFPPSDEQLKSGTASVVCLLNNFYPREAKVQWKVDNALQSGNSQESVTEQDSKDSTYSLSSTLTLSKADYEKHKVYACEVTHQGLSSPVTKSFNRGEC
5 | binds | binds | mAb158-scLc-8D3-Ig.7 (bispecific antibody, human IgG1, kappa, Format [LC-L1-scBM-L2-LC]) heavy: not shown DIVMTQAPLSLPVSLGDQASISCRSSQSIVHSNGNTYLEWYLQKPGQSPKLLIYKVSNRFSGVPDRFSGSGSGTDFTLKISRVEAEDLGIYYCFQGSHVPPTFGGGTKLEIKRADAAPTVSIFPPSSEQLTSGGASVVCFLNNFYPKDINVKWKIDGSERQNGVLNSWTDQDSKDSTYSMSSTLTLTKDEYERHNSYTCEATHKTSTSPIVKSFNRNECGGGGSGGGGSEVQLVESGGGLVQPGNSLTLSCVASGFTFSNYGMHWIRQAPKKGLEWIAMIYYDSSKMNYADTVKGRFTISRDNSKNTLYLEMNSLRSEDTAMYYCAVPTSHYVVDVWGQGVSVTVSSGGGGSGGGGSGGGGSDIQMTQSPASLSASLEEIVTITCQASQDIGNWLAWYQQKPGKSPQLLIYGATSLADGVPSRFSGSRSGTQFSLKISRVQVEDIGIYYCLQAYNTPWTFGGGTKLELKRGGGGSGGGGSDIVMTQAPLSLPVSLGDQASISCRSSQSIVHSNGNTYLEWYLQKPGQSPKLLIYKVSNRFSGVPDRFSGSGSGTDFTLKISRVEAEDLGIYYCFQGSHVPPTFGGGTKLEIKRADAAPTVSIFPPSSEQLTSGGASVVCFLNNFYPKDINVKWKIDGSERQNGVLNSWTDQDSKDSTYSMSSTLTLTKDEYERHNSYTCEATHKTSTSPIVKSFNRNEC
6 | binds | binds | mAb158-scLc-8D3-Ig.9 (bispecific antibody, human IgG1, kappa, Format [LC-L1-scBM-L2-LC]) heavy: not shown DIVMTQAPLSLPVSLGDQASISCRSSQSIVHSNGNTYLEWYLQKPGQSPKLLIYKVSNRFSGVPDRFSGSGSGTDFTLKISRVEAEDLGIYYCFQGSHVPPTFGGGTKLEIKRADAAPTVSIFPPSSEQLTSGGASVVCFLNNFYPKDINVKWKIDGSERQNGVLNSWTDQDSKDSTYSMSSTLTLTKDEYERHNSYTCEATHKTSTSPIVKSFNRNECGGGGSGGGGSGGGGSGGGGSEVQLVESGGGLVQPGNSLTLSCVASGFTFSNYGMHWIRQAPKKGLEWIAMIYYDSSKMNYADTVKGRFTISRDNSKNTLYLEMNSLRSEDTAMYYCAVPTSHYVVDVWGQGVSVTVSSGGGGSGGGGSGGGGSDIQMTQSPASLSASLEEIVTITCQASQDIGNWLAWYQQKPGKSPQLLIYGATSLADGVPSRFSGSRSGTQFSLKISRVQVEDIGIYYCLQAYNTPWTFGGGTKLELKRGGGGSGGGGSGGGGSGGGGSDIVMTQAPLSLPVSLGDQASISCRSSQSIVHSNGNTYLEWYLQKPGQSPKLLIYKVSNRFSGVPDRFSGSGSGTDFTLKISRVEAEDLGIYYCFQGSHVPPTFGGGTKLEIKRADAAPTVSIFPPSSEQLTSGGASVVCFLNNFYPKDINVKWKIDGSERQNGVLNSWTDQDSKDSTYSMSSTLTLTKDEYERHNSYTCEATHKTSTSPIVKSFNRNEC
7 | binds | binds | mAb158-scLc-8D3-Ig.11 (bispecific antibody, human IgG1, kappa, Format [LC-L1-scBM-L2-LC]) heavy: not shown DIVMTQAPLSLPVSLGDQASISCRSSQSIVHSNGNTYLEWYLQKPGQSPKLLIYKVSNRFSGVPDRFSGSGSGTDFTLKISRVEAEDLGIYYCFQGSHVPPTFGGGTKLEIKRADAAPTVSIFPPSSEQLTSGGASVVCFLNNFYPKDINVKWKIDGSERQNGVLNSWTDQDSKDSTYSMSSTLTLTKDEYERHNSYTCEATHKTSTSPIVKSFNRNECGGGGSGGGGSGGGGSGGGGSGGGGSEVQLVESGGGLVQPGNSLTLSCVASGFTFSNYGMHWIRQAPKKGLEWIAMIYYDSSKMNYADTVKGRFTISRDNSKNTLYLEMNSLRSEDTAMYYCAVPTSHYVVDVWGQGVSVTVSSGGGGSGGGGSGGGGSDIQMTQSPASLSASLEEIVTITCQASQDIGNWLAWYQQKPGKSPQLLIYGATSLADGVPSRFSGSRSGTQFSLKISRVQVEDIGIYYCLQAYNTPWTFGGGTKLELKRGGGGSGGGGSGGGGSDIVMTQAPLSLPVSLGDQASISCRSSQSIVHSNGNTYLEWYLQKPGQSPKLLIYKVSNRFSGVPDRFSGSGSGTDFTLKISRVEAEDLGIYYCFQGSHVPPTFGGGTKLEIKRADAAPTVSIFPPSSEQLTSGGASVVCFLNNFYPKDINVKWKIDGSERQNGVLNSWTDQDSKDSTYSMSSTLTLTKDEYERHNSYTCEATHKTSTSPIVKSFNRNEC
8 | binds | binds | mAb158-scLc-8D3-Ig.8 (bispecific antibody, human IgG1, kappa, Format [LC-L1-scBM-L2-LC]) heavy: not shown DIVMTQAPLSLPVSLGDQASISCRSSQSIVHSNGNTYLEWYLQKPGQSPKLLIYKVSNRFSGVPDRFSGSGSGTDFTLKISRVEAEDLGIYYCFQGSHVPPTFGGGTKLEIKRADAAPTVSIFPPSSEQLTSGGASVVCFLNNFYPKDINVKWKIDGSERQNGVLNSWTDQDSKDSTYSMSSTLTLTKDEYERHNSYTCEATHKTSTSPIVKSFNRNECGGGGSGGGGSGGGGSEVQLVESGGGLVQPGNSLTLSCVASGFTFSNYGMHWIRQAPKKGLEWIAMIYYDSSKMNYADTVKGRFTISRDNSKNTLYLEMNSLRSEDTAMYYCAVPTSHYVVDVWGQGVSVTVSSGGGGSGGGGSGGGGSDIQMTQSPASLSASLEEIVTITCQASQDIGNWLAWYQQKPGKSPQLLIYGATSLADGVPSRFSGSRSGTQFSLKISRVQVEDIGIYYCLQAYNTPWTFGGGTKLELKRGGGGSGGGGSGGGGSDIVMTQAPLSLPVSLGDQASISCRSSQSIVHSNGNTYLEWYLQKPGQSPKLLIYKVSNRFSGVPDRFSGSGSGTDFTLKISRVEAEDLGIYYCFQGSHVPPTFGGGTKLEIKRADAAPTVSIFPPSSEQLTSGGASVVCFLNNFYPKDINVKWKIDGSERQNGVLNSWTDQDSKDSTYSMSSTLTLTKDEYERHNSYTCEATHKTSTSPIVKSFNRNEC
